Data reported in US20090041770A1.

These substances were tested against human FcRn fused to a His-tag and glutathione S transferase (FcRn-His-GST), complex of FcRn heavy chain with beta-2-microglobulin (human) (UniProt P55899) (assay: AlphaScreen competition, […] NaCl).
V308F AC10 - IgG1 (antibody) showed a FcRn Binding Fold-Increase of 46.1.
With P257L AC10 - IgG1 (antibody) the FcRn Binding Fold-Increase was 44.

The substances below were run against human FcRn fused to a His-tag and glutathione S transferase (FcRn-His-GST), complex of FcRn heavy chain with beta-2-microglobulin (human) (UniProt P55899) (assay: AlphaScreen competition, 25 mM NaCl).
^281S/V308F (antibody) showed a Medan Fold Increase of 2.13.
Substance ^281D (antibody) has a Medan Fold Increase of 0.89.
Work on ^281S/V308Y (antibody) yielded a Medan Fold Increase of 1.46.
For ^281T (antibody), the Medan Fold Increase was 0.56.
